Experimental data reported in article doi:10.1101/2021.03.09.434581.
Several values for one entry are separate records, joined by “and”; a condition that tells them apart may be missing. Equal values may be shown once.

Experiments:
[1] = molecular target: Vibrio cholerae ParD2 N-terminal domain as found in the crystal (Vibrio cholerae); assay: crystal structure
[2] = molecular target: Vibrio cholerae ParD2 antitoxin, full length (Vibrio cholerae); assay: SEC-MALS
[3] = molecular target: Vibrio cholerae ParD2 antitoxin, full length (Vibrio cholerae); assay: SEC-SAXS

| Substance | stoichiometry N [1] | stoichiometry N [2] | stoichiometry N [3] |
| --- | --- | --- | --- |
| Vibrio cholerae ParD2 N-terminal domain as found in the crystal (domain or fragment) | 16 | – | – |
| Vibrio cholerae ParD2 antitoxin, full length (natural protein) | – | 10 and 12 and 8 | 12 |
